Experimental data published in FireProtDB (doi:10.1016/s0301-4622(99)00140-4).

Settings: Bos taurus, pH 8, Thermal, DSC, Tris 10 mM, whole UniProt chain shown

B1: Alpha-lactalbumin wild type, P00711 (protein)
chain: MMSFVSLLLVGILFHATQAEQLTKCEVFRELKDLKGYGGVSLPEWVCTTFHTSGYDTQAIVQNNDSTEYGLFQINNKIWCKDDQNPHSSNICNISCDKFLDDDLTDDIMCVKKILDKVGINYWLAHKALCSEKLDQWLCEKL
Tm (CaCl2 0.0 mM): 64.1 °C
unfolding enthalpy (calorimetric) (CaCl2 0.0 mM): 64.8 kcal/mol
Tm (CaCl2 0.1 mM): 65.2 °C
unfolding enthalpy (calorimetric) (CaCl2 0.1 mM): 71.1 kcal/mol
Tm (CaCl2 1.0 mM): 67.9 °C
unfolding enthalpy (calorimetric) (CaCl2 1.0 mM): 75.6 kcal/mol
Tm (CaCl2 2.0 mM): 68.9 °C
unfolding enthalpy (calorimetric) (CaCl2 2.0 mM): 76 kcal/mol
Tm (CaCl2 10.0 mM): 70 °C
unfolding enthalpy (calorimetric) (CaCl2 10.0 mM): 75 kcal/mol
